Test results as given in publication PMC4104028 (2014).

B1: GFP-WIPI2b [not stated] / FLAG-Atg16L1 full-length (FL) [mouse] (parent complex)
chain 1: MNLASQSGEAGAGQLLFANFNQDNTSLAVGSKSGYKFFSLSSVDKLEQIYECTDTEDVCIVERLFSSSLVAIVSLKAPRKLKVCHFKKGTEICNYSYSNTILAVKLNRQRLIVCLEESLYIHNIRDMKVLHTIRETPPNPAGLCALSINNDNCYLAYPGSATIGEVQVFDTINLRAANMIPAHDSPLAALAFDASGTKLATASEKGTVIRVFSIPEGQKLFEFRRGVKRCVSICSLAFSMDGMFLSASSNTETVHIFKLETVKEKPPEEPTTWTGYFGKVLMASTSYLPSQVTEMFNQGRAFATVRLPFCGHKNICSLATIQKIPRLLVGAADGYLYMYNLDPQEGGECALMKQHRLDGSLETTNEILDSASHDCPLVTQTYGAAAGKGTYVPSSPTRLAYTDDLGAVGGACLEDEASALRLDEDSEHPPMILRTD
chain 2: MSSGLRAADFPRWKRHIAEELRRRDRLQRQAFEEIILQYTKLLEKSDLHSVLTQKLQAEKHDMPNRHEISPGHDGAWNDSQLQEMAQLRIKHQEELTELHKKRGELAQLVIDLNNQMQQKDKEIQMNEAKISEYLQTISDLETNCLDLRTKLQDLEVANQTLKDEYDALQITFTALEEKLRKTTEENQELVTRWMAEKAQEANRLNAENEKDSRRRQARLQKELAEAAKEPLPVEQDDDIEVIVDETSDHTEETSPVRAVSRAATKRLSQPAGGLLDSITNIFGLSESPLLGHHSSDAARRRSVSSIPVPQDIMDTHPASGKDVRVPTTASYVFDAHDGEVNAVQFSPGSRLLATGGMDRRVKLWEAFGDKCEFKGSLSGSNAGITSIEFDSAGAYLLAASNDFASRIWTVDDYRLRHTLTGHSGKVLSAKFLLDNARIVSGSHDRTLKLWDLRSKVCIKTVFAGSSCNDIVCTEQCVMSGHFDKKIRFWDIRSESVVREMELLGKITALDLNPERTELLSCSRDDLLKVIDLRTNAVKQTFSAPGFKCGSDWTRVVFSPDGSYVAAGSAEGSLYVWSVLTGKVEKVLSKQHSSSINAVAWAPSGLHVVSVDKGSRAVLWAQP
B2: FLAG-Atg16L1 full-length (FL) [mouse] / endogenous FIP200 (HEK293A) [human (endogenous in HEK293A)] (parent complex)
chain 1: B1 chain 2
chain 2: MKLYVFLVNTGTTLTFDTELTVQTVADLKHAIQSKYKIAIQHQVLVVNGGECMAADRRVCTYSAGTDTNPIFLFNKEMILCDRPPAIPKTTFSTENDMEIKVEESLMMPAVFHTVASRTQLALEMYEVAKKLCSFCEGLVHDEHLQHQGWAAIMANLEDCSNSYQKLLFKFESIYSNYLQSIEDIKLKLTHLGTAVSVMAKIPLLECLTRHSYRECLGRLDSLPEHEDSEKAEMKRSTELVLSPDMPRTTNESLLTSFPKSVEHVSPDTADAESGKEIRESCQSTVHQQDETTIDTKDGDLPFFNVSLLDWINVQDRPNDVESLVRKCFDSMSRLDPRIIRPFIAECRQTIAKLDNQNMKAIKGLEDRLYALDQMIASCGRLVNEQKELAQGFLANQKRAENLKDASVLPDLCLSHANQLMIMLQNHRKLLDIKQKCTTAKQELANNLHVRLKWCCFVMLHADQDGEKLQALLRLVIELLERVKIVEALSTVPQMYCLAVVEVVRRKMFIKHYREWAGALVKDGKRLYEAEKSKRESFGKLFRKSFLRNRLFRGLDSWPPSFCTQKPRKFDCELPDISLKDLQFLQSFCPSEVQPFLRVPLLCDFEPLHQHVLALHNLVKAAQSLDEMSQTITDLLSEQKASVSQTSPQSASSPRMESTAGITTTTSPRTPPPLTVQDPLCPAVCPLEELSPDSIDAHTFDFETIPHPNIEQTIHQVSLDLDSLAESPESDFMSAVNEFVIEENLSSPNPISDPQSPEMMVESLYSSVINAIDSRRMQDTNVCGKEDFGDHTSLNVQLERCRVVAQDSHFSIQTIKEDLCHFRTFVQKEQCDFSNSLKCTAVEIRNIIEKVKCSLEITLKEKHQKELLSLKNEYEGKLDGLIKETEENENKIKKLKGELVCLEEVLQNKDNEFALVKHEKEAVICLQNEKDQKLLEMENIMHSQNCEIKELKQSREIVLEDLKKLHVENDEKLQLLRAELQSLEQSHLKELEDTLQVRHIQEFEKVMTDHRVSLEELKKENQQIINQIQESHAEIIQEKEKQLQELKLKVSDLSDTRCKLEVELALKEAETDEIKILLEESRAQQKETLKSLLEQETENLRTEISKLNQKIQDNNENYQVGLAELRTLMTIEKDQCISELISRHEEESNILKAELNKVTSLHNQAFEIEKNLKEQIIELQSKLDSELSALERQKDEKITQQEEKYEAIIQNLEKDRQKLVSSQEQDREQLIQKLNCEKDEAIQTALKEFKLEREVVEKELLEKVKHLENQIAKSPAIDSTRGDSSSLVAELQEKLQEEKAKFLEQLEEQEKRKNEEMQNVRTSLIAEQQTNFNTVLTREKMRKENIINDLSDKLKSTMQQQERDKDLIESLSEDRARLLEEKKKLEEEVSKLRSSSFVPSPYVATAPELYGACAPELPGESDRSAVETADEGRVDSAMETSMMSVQENIHMLSEEKQRIMLLERTLQLKEEENKRLNQRLMSQSMSSVSSRHSEKIAIRDFQVGDLVLIILDERHDNYVLFTVSPTLYFLHSESLPALDLKPGEGASGASRRPWVLGKVMEKEYCQAKKAQNRFKVPLGTKFYRVKAVSWNKKV
B3: FLAG-Atg16L1 full-length (FL) [mouse] / GFP-WIPI2b [not stated] (parent complex)
chain 1: B1 chain 2
chain 2: B1 chain 1
B4: GFP-WIPI2b [not stated] / FLAG-Atg16L1 full-length (FL) [mouse] (parent complex)
chain 1: B1 chain 1
chain 2: B1 chain 2

Variants of: B1
Assay: GFP-Trap co-immunoprecipitation from mixed lysates, immunoblot quantification; parent: 2.5; read off a plot

Variant	response
chain 2 E226R, chain 2 E230R	~0.02
chain 2 E230R	~0.62
chain 2 E226R	~0.33

Variants of: B2
Assay: FLAG immunoprecipitation, immunoblot quantification; parent: 1; read off a plot

Variant	ratio to parent
chain 1 D239R	~0.3
chain 1 D212R	~1.2
chain 1 E208R	~1.3
chain 1 E235R	~0.7
chain 1 D237R	~0.45
chain 1 E230R	~2.9
chain 1 E241R	~0.25
chain 1 D238R	~0.42
chain 1 E226R	~2.1

Variants of: B3
Assay: GFP-Trap co-immunoprecipitation from mixed lysates, immunoblot quantification; parent: 1; read off a plot

Variant	ratio to parent
chain 1 E226R	~0.02
chain 1 E230R	~0.02
chain 1 E241R	~1.1
chain 1 D238R	~1.3
chain 1 D212R	~0.63
chain 1 D239R	~0.8
chain 1 E208R	~0.67
chain 1 E235R	~1.2
chain 1 D237R	~1.7

Variants of: B4
Assay: GFP-Trap co-immunoprecipitation from mixed lysates, immunoblot quantification; parent: 2.5; read off a plot

Variant	response
chain 1 R125E	~1.6
chain 1 R108E, chain 1 R125E	~0.03
chain 1 R108E	~0.04
